Experimental findings from patent EP4631972A1, “SITE-SPECIFIC COUPLED PEGYLATED INTERLEUKIN-2 MUTANT WITH RECEPTOR AFFINITY PREFERENCE AND USE THEREOF” (priority 2022, dated 2024) are described below.

In assay [1] the target is T1, IL-2αβγ triple receptor (Homo sapiens, UniProt P01589+P14784+P31785).
T1 construct: Uniprot P01589 1Met-551Ile constructed into plasmid pcDNA3.1/zeo; Uniprot P14784 1Met-551Val constructed into plasmid pcDNA3.1(+); Uniprot P31785 1Met-551Thr was constructed into plasmid pcDNA3.1/zeo; expressed in transfected cells; host or cells: 293EC18 cells, transient co-transfection with pCMV/JAK3 and PGL4.52/STAT5RE
T1 sequence (P01589 22-272): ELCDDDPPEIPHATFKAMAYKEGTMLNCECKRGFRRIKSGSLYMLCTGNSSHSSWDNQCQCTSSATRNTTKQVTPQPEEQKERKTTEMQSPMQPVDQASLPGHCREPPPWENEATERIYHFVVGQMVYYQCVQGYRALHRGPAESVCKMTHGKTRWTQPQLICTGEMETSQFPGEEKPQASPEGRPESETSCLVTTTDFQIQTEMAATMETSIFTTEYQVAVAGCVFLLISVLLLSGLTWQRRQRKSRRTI
T1 sequence (P14784 27-551): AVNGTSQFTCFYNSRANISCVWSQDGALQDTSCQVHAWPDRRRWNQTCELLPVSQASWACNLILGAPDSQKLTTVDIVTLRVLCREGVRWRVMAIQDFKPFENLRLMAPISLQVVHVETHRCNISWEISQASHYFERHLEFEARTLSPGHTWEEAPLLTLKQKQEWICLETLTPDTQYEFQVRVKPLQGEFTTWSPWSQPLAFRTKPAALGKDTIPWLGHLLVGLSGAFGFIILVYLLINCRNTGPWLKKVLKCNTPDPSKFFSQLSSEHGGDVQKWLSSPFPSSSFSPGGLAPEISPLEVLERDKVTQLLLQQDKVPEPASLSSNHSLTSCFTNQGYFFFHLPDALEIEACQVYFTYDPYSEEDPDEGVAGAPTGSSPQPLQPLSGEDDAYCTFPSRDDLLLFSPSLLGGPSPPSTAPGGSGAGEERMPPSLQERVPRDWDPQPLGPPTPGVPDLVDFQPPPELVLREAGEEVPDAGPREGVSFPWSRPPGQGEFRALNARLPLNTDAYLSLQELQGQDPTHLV
T1 sequence (P31785 23-369): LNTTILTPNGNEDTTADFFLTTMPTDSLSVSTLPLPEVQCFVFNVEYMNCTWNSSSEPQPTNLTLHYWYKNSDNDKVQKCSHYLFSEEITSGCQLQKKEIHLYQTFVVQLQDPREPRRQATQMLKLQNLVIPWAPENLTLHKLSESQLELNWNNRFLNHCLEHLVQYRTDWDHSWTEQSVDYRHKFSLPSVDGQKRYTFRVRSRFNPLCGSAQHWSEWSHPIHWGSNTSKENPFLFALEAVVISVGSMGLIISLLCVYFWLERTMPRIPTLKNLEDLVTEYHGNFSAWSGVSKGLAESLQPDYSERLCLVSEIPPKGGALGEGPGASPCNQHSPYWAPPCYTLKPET
Briefly: STAT5 reporter gene assay, activation of IL-2αβγ triple receptor in 293EC18/αβγ/JAK3/STAT5 cells. Type of assay: cell-based. The note with it: Example 3, Table 2 and Figure 3. As for the experimental part:
(§1) Since the binding of IL-2 to the β and γ subunits of its receptor induces STAT5 phosphorylation, which subsequently leads to dimerization and translocation into the nucleus to promote target gene transcription, this example evaluates the ability of the mutant IL-2 polypeptides to induce signaling through the IL-2 receptor by measuring STAT5 phosphorylation.
Adherent 293EC18 cells were cultured to about 90% confluence using conventional methods. After trypsin digestion, the cells were resuspended in cell culture medium to 4×10^5 cells/ml and 50 µl/well were added to two 96-well cell culture plates. After incubation at 37°C for 48 h, the supernatant was aspirated and fresh culture medium was added. […]
Each IL2 mutant was diluted 4-fold in a gradient manner using PBS buffer, with a total of 11 dilutions and a starting concentration of 65.2 nM. […] Bio-Lite Luciferase Assay System reagents that have been mixed and equilibrated to room temperature were added to the cell culture plates to be tested at 100 µl/well, placed on a microplate shaker at 450 rpm to mix for 2 minutes, then allowed to stand at room temperature for 3 minutes, and the chemiluminescence value was detected with an enzyme plate reader.
(§2) The logarithm of the final concentration of each IL-2 mutant sample was used as the X-axis, and the chemiluminescence detection results were used as the Y-axis for plotting. Data were analyzed using the four-parameter logistic regression model in GraphPad Prism 9. Table 2 EC50 values for the activation of the IL-2αβγ triple receptor by PEG-IL-2 mutants as determined by a reporter gene assay.
According to the method of Example 3, each polyethylene glycol-modified mutant obtained in this example was assessed for the binding preference to the IL2 receptors by a reporter assay. Table 4 EC50 values for the activation of the IL-2αβγ triple receptor by PEG-IL-2 mutants as determined by a reporter gene assay. […]

Assay [2] addresses T2, IL-2βγ dual receptor (Homo sapiens, UniProt P14784+P31785).
T2 construct: Uniprot P14784 1Met-551Val was constructed into plasmid pcDNA3.1(+); Uniprot P31785 1Met-551Thr was constructed into plasmid pcDNA3.1/zeo; expressed in transfected cells; host or cells: 293EC18 cells, transient co-transfection with pCMV/JAK3 and PGL4.52/STAT5RE
T2 sequence (P14784 27-551): T1 sequence (P14784 27-551)
T2 sequence (P31785 23-369): T1 sequence (P31785 23-369)
Briefly: STAT5 reporter gene assay, activation of IL-2βγ dual receptor in 293EC18/βγ/JAK3/STAT5 cells. Format: cell-based. On the procedure: as §1
Adherent 293EC18 cells were cultured to about 90% confluence using conventional methods. After trypsin digestion, the cells were resuspended in cell culture medium to 4×10^5 cells/ml and 50 µl/well were added to two 96-well cell culture plates. After incubation at 37°C for 48 h, the supernatant was aspirated and fresh culture medium was added. According to the manufacturer's method, four plasmids, pcDNA3.1(+)/CD122 (constructed by Nanjing Novoacine Biotechnology Co., Ltd, Uniprot P14784 1Met-551Val was constructed into plasmid pcDNA3.1(+)), pcDNA3.1/puro/CD132 (constructed by Nanjing Novoacine Biotechnology Co., Ltd, Uniprot P31785 1Met-551Thr was constructed into plasmid pcDNA3.1/zeo), pCMV/JAK3 (Sino Biological), and PGL4.52/STAT5RE (Promega) were transiently transfected into 293EC18 cells using a cationic transfection reagent (ExFect Transfection Reagent, Vazyme). The obtained cells were named 293EC18/βγ/JAK3/STAT5 cells. Alternatively, five plasmids, pcDNA3.1/zeo/CD25 (constructed by Nanjing Novoacine Biotechnology Co., Ltd, Uniprot P01589 1Met-551Ile constructed into plasmid pcDNA3.1/zeo), pcDNA3.1(+)/CD122 (constructed by Nanjing Novoacine Biotechnology Co., Ltd, Uniprot P14784 1Met-551Val constructed into plasmid pcDNA3.1(+)), pcDNA3.1/puro/CD132 (constructed by Nanjing Novoacine Biotechnology Co., Ltd, UniprotP31785 1Met-551Thr constructed into plasmid pcDNA3.1/zeo), pCMV/JAK3 (Sino Biological), and PGL4.52/STAT5RE (Promega) were transiently transferred into 293EC18 cells, and the obtained cells were named 293EC18/αβγ/JAK3/STAT5 cells. The transfected cells were incubated at 37°C and 5% CO2 for another 6 h.
Each IL2 mutant was diluted 4-fold in a gradient manner using PBS buffer, with a total of 11 dilutions and a starting concentration of 65.2 nM. In the above cell culture plates, 50 µl/well of each of the serially diluted IL2 mutant samples was added in duplicate. Then, the cell culture plate was placed in an incubator at 37°C and 5% CO2 for overnight culture. The cell culture plates were kept at room temperature for 20 ± 5 minutes to equilibrate the plates to room temperature. Bio-Lite Luciferase Assay System reagents that have been mixed and equilibrated to room temperature were added to the cell culture plates to be tested at 100 µl/well, placed on a microplate shaker at 450 rpm to mix for 2 minutes, then allowed to stand at room temperature for 3 minutes, and the chemiluminescence value was detected with an enzyme plate reader.
as §2
According to the method of Example 3, each polyethylene glycol-modified mutant obtained in this example was assessed for the binding preference to the IL2 receptors by a reporter assay. Table 4 EC50 values for the activation of the IL-2αβγ triple receptor by PEG-IL-2 mutants as determined by a reporter gene assay.
Referring to Example 3, the phosphorylation of STAT5 was used to evaluate the ability of the PEG-modified IL-2 mutants having a non-natural amino acid mutation prepared in Example 14 to induce signal transduction via the IL-2 receptor. […]
In general terms: A reporter such as luciferase makes a cellular process visible.

In the case of “80k-1PEG-IL2-D84C: IL-2 (C125S) mutant D84C with one 80k PEG-maleimide conjugated to cysteine 84”, the “activation of the IL-2Rαβγ triple receptor compared with the control IL2-N88R” value in assay [1] is on record as “even stronger activation”.

B1: 80k-1PEG-IL2-N88R-N33C: IL-2 mutant N88R, N33C with one 80k PEG conjugated to cysteine 33 (conjugate)
chain: APTSSSTKKTQLQLEHLLLDLQMILNGINNYKC(PEG 80 kDa)PKLTRMLTFKFYMPKKATELKHLQCLEEELKPLEEVLNLAQSKNFHLRPRDLISRINVIVLELKGSETTFMCEYADETATIVEFLNRWITFSQSIISTLT
Consider B1, for which the “activation of the IL-2Rαβγ triple receptor compared with the control IL2-N88R” value in assay [1] is “even stronger activation”. In addition, in assay [2] (Figure 1, concentration of 65.2 nM), the “activation effect on the IL-2Rβγ dual receptor compared with control IL-2 N88R” value is “lower activation effects”. For the same molecule, the “activation effect on / affinity to IL-2Rβγ dual receptor compared with control IL-2 N88R” value in assay [2] (Figure 2, all concentrations) is listed as “further reduced the affinity to IL-2Rβγ”.
